From patent US20260109763A1, “ANTI-PILRA ANTIBODIES, USES THEREOF, AND RELATED METHODS AND REAGENTS” (DENALI THERAPEUTICS INC., priority 2021, published 2026) come the findings set out here.

Test [1] deals with human PILRA R78 on cells (human) (UniProt Q9UKJ1). As to the kind of experiment: target engagement in brain lysate of human PILRA (R78) BACtg mice, 1 day after dosing; MSD assay, bound versus total PILRA.
Test [2] shares this target. As to the kind of experiment: target engagement in brain lysate of human PILRA (R78) BACtg mice, 4 days after dosing; MSD assay, bound versus total PILRA.

human PILRA R78 on cells (human), sequence (Q9UKJ1 20-303 limits assumed): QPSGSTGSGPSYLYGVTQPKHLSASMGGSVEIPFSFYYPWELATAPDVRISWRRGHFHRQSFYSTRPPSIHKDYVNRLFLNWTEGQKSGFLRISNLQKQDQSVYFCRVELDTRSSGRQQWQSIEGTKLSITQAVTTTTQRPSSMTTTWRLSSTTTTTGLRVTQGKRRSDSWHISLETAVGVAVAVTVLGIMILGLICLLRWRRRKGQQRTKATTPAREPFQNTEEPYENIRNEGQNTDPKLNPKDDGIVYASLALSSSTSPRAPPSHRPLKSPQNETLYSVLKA

Turning to isotype control antibody, the percent of brain human PILRA bound, 1 day in test [1] came out at 17%. The substance further displayed a percent of brain human PILRA bound, 4 days in test [2] of 16%.
